The target of test [1] is E1-beta of plasmid pCD705, with the C-terminal part of the E1-beta open reading frame in the wrong orientation (Streptomyces avermitilis).
The target in test [2] is E1-beta subunit of S. avermitilis BCKDH (Streptomyces avermitilis).

For the substance “E1-alpha subunit of S. avermitilis BCKDH (enzyme)”, the results for the E1 BCKDH specific activity in test [1] and in test [2] were 0.5 pmol/min/mg and 13.7 pmol/min/mg, respectively.
